Results: publication PMC7183857

Biological target: CA_(E180A) and CA_(E187A)
Assay: co-sedimentation

For “MxB_(1–35)-MBPdi (from UniProt P20592 1-35)”, the binding as percent of WT CA tubes was 73 to 83 % of WT.
